Experiments:
[1] = biological target: VC-Ubx^NES (NES-mutated full length Ubx fused to the C-terminal fragment of Venus) (Drosophila); test: split reporter
[2] = biological target: GST-Ubx NES-mutated (Drosophila); test: pull-down

Row | percent decrease of BiFC fluorescence in the nucleus against wild type Ubx [1] | percent loss of pulled-down Emb against wild type GST-Ubx [2] | Substance
1 | 40% |  | VN-Emb (Embargoed fused to the N-terminal fragment of Venus) (from UniProt Q9TVM2 1-1063) (natural protein)
2 |  | 30% | VC-Emb, in S2R+ cell extract (from UniProt Q9TVM2 1-1063) (natural protein)
